Laboratory results published in paper PMC3597700.

What was measured:
GST-RHA dsRBD1 = GST-RHA dsRBD1 (Homo sapiens, UniProt Q08211 1-91); assay: pull-down
GST-RHA dsRBD1+2 = GST-RHA dsRBD1+2 (Homo sapiens, UniProt Q08211 1-264); assay: pull-down
GST-RHA dsRBD2 = GST-RHA dsRBD2 (Homo sapiens, UniProt Q08211 165-264); assay: pull-down
RHA dsRBD1+2 = RHA dsRBD1+2 (Homo sapiens, UniProt Q08211 1-264); assay: ITC
RHA dsRBD2 K182A = RHA dsRBD2 K182A (Homo sapiens, UniProt Q08211 165-264, K182A); assay: ITC
Chain of RHA dsRBD2 K182A (Q08211 165-264 K182A): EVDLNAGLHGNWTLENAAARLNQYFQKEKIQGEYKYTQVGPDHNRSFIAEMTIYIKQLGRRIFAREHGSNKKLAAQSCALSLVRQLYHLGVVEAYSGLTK

RHA dsRBD2 [1] = biological target: T1, RHA dsRBD2 (Homo sapiens, UniProt Q08211 165-264); assay: ITC
T1 sequence (Q08211 165-264): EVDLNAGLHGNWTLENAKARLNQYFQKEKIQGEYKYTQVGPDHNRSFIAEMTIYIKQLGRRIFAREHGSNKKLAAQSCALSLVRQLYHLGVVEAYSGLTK

RHA dsRBD1 [2] = biological target: T2, RHA dsRBD1 (Homo sapiens, UniProt Q08211 1-91); assay: ITC
T2 sequence (Q08211 1-91): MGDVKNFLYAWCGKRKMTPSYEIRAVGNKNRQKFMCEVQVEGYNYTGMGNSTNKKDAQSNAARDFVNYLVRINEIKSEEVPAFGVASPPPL

RHA dsRBD1 N30A = RHA dsRBD1 N30A (Homo sapiens, UniProt Q08211 1-91, N30A); assay: ITC
Chain of RHA dsRBD1 N30A (Q08211 1-91 N30A): as the sequence (Q08211 1-91) above, with N30A counted along it

RHA dsRBD2 H207A = RHA dsRBD2 H207A (Homo sapiens, UniProt Q08211 165-264, H207A); assay: ITC
Chain of RHA dsRBD2 H207A (Q08211 165-264 H207A): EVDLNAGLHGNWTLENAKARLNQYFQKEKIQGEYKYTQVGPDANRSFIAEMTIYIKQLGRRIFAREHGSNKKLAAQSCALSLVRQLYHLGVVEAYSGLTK

[3] = biological target: RHA dsRBD1 N53A/K54A/K55A (Homo sapiens, UniProt Q08211 1-91, N53A;K54A;K55A); assay: ITC
Chain of RHA dsRBD1 N53A/K54A/K55A (Q08211 1-91 N53A/K54A/K55A): as the sequence (Q08211 1-91) above, with N53A, K54A, K55A counted along it

[4] = biological target: RHA dsRBD2 N234A/K235A/K236A (Homo sapiens, UniProt Q08211 165-264, N234A;K235A;K236A); assay: ITC
Chain of RHA dsRBD2 N234A/K235A/K236A (Q08211 165-264 N234A/K235A/K236A): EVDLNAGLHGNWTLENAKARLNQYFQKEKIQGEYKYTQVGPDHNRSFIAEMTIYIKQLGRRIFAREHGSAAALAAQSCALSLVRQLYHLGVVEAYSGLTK

RHA dsRBD1 Y9A = RHA dsRBD1 Y9A (Homo sapiens, UniProt Q08211 1-91, Y9A); assay: ITC
Chain of RHA dsRBD1 Y9A (Q08211 1-91 Y9A): as the sequence (Q08211 1-91) above, with Y9A counted along it

RHA dsRBD1 [5] = biological target: T2, RHA dsRBD1; assay: crystal structure
RHA dsRBD2 [6] = biological target: T1, RHA dsRBD2; assay: crystal structure

Chain of GST-RHA dsRBD2 (Q08211 165-264): as the sequence (Q08211 165-264) above
Chain of GST-RHA dsRBD1 (Q08211 1-91): as the sequence (Q08211 1-91) above
Chain of GST-RHA dsRBD1+2 (Q08211 1-264): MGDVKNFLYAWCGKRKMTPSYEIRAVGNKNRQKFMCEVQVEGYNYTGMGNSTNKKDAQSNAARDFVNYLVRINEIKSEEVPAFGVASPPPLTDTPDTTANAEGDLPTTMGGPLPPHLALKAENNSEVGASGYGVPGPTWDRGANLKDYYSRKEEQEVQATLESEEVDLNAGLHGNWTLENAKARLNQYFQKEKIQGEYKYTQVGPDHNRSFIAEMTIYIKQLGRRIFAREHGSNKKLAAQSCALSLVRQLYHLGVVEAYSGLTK
Chain of RHA dsRBD1+2 (Q08211 1-264): as above

B1: 5'-biotinylated siRNA21 duplex (dsRNA)
RNA 1: AGACAGCAUUAUGCUGUCUUU
RNA 2: AGACAGCAUUAUGCUGUCUUU
GST-RHA dsRBD1
  binding result: binds
GST-RHA dsRBD1+2
  binding result: binds
GST-RHA dsRBD2
  binding result: binds

B2: siRNA21 duplex (dsRNA)
RNA 1: AGACAGCAUUAUGCUGUCUUU
RNA 2: AGACAGCAUUAUGCUGUCUUU
modifications: 5' phosphate
RHA dsRBD1+2
  Kd: 0.106 µM
RHA dsRBD2 K182A
  Kd: 334 µM
RHA dsRBD2 [1]
  Kd: 13.6 µM
RHA dsRBD1 [2]
  Kd: 5.93 µM
RHA dsRBD1 N30A
  Kd: 14.5 µM
RHA dsRBD2 H207A
  Kd: 291 µM
[3]
  binding result: no binding
[4]
  binding result: no binding
RHA dsRBD1 Y9A
  binding result: no binding

B3: GC10 duplex (dsRNA)
RNA 1: GCGCGCGCGC
RNA 2: GCGCGCGCGC
RHA dsRBD1 [5]
  binding result: binds
RHA dsRBD2 [6]
  binding result: binds
